Measurements taken from a protein production outcome set (Wang et al. 2014).

Test: label from the status in PepcDB records
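Note: failed if final PepcDB status was selected cloned or expressed and not failed if soluble or beyond.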

Row | Sequence | protein production
1 | MSLKNSSRSAVDPFIVMDVMEAARRAEEAGRRIIHMEVGQPGTGAPRGAVEALAKSLETDALGYTVALGLPALRQRIARLYGEWYGVDLDPGRVVITPGSSGGFLLAFTALFDSGDRVGIGAPGYPSYRQILRALGLVPVDLPTAPENRLQPVPADFAGLDLAGLMVASPANPTGTMLDHAAMGALIEAAQAQGASFISDEIYHGIEYEAKAVTALELTDECYVINSFSKYFSMTGWRVGWMVVPEDQVRVVERIAQNMFICAPHASQVAALAALDCDAELQANLDVYKANRKLMLERLPKAGFTRIAPPDGAFYVYADVSDLTDDSRAFAAEILEKAGVAVTPGLDFDPERGAGTLRFSYARATADIEEGLDRLEAFMQARGEGHHHHHH | not failed
2 | MIPYLYVLAAAFLWGTSFVAGKIAFGVADAPLIVLARFAMAGLFWLPVFCRSVRSVPSSRWGALLLLSFLMIPATFLLQFMGLQYTSATSATLMIGFEPLMVMLVGWLIWREQMTALHLLLGTVALAGVLLVMGWPSGANFLGCLLVLLSTVVVAIWVRWSKIWMQSLSVNAFTALTTVLGTIMLIPFALFLTNDWQVNLSTQGASALLYLGVGCSLGAGWLWNMGMRSIPANAGGMFLALEPIFGVIFAVALLYEPLGATTLAGIGLVVIPVLVISVLPVLQARRLPEAC | failed
3 | MEFTTQHFIALAPMLITTITTVVVMLAIAWKRNHSQTFLLSTVGLNLALLSLLPALKVAPLAVTSLITIDKFACLYMAIILVATLACVTLAHAYLGEGAKGFPGNREELYLLLLMSALGGLVLVSANHLAGLFIGLELLSVPVYGLVAYAFFNKRSLEAGIKYMVLSAAGSAFLLFGMALLYADAGSLSFDQIGKALATTSMPSLVAQLGLGMMLVGLAFKLSLVPFHLWTPDVYEGAPAPVAAFLATASKVAVFAVVVRLFMLSPAASSGVLSTVLAVIAVASILIGNLLALTQSNLKRLLGYSSIAHFGYLVIALVASKGLALEAMGVYLVTYVITSLGAFGVITLMSSPYGGRDADALYEYRGLFWRRPYLTAVLTVMMLSLAGIPLTAGFIGKFYIIATGVESHLWWLVGALVIGSAIGVYYYLRVMVTLYLVEPNLRRHDAPLKWEQRTGGVMLLAIAILAFVLGVYPQPLLEMVQQAGLQLIG | failed
4 | MIKMIVVLRLGHRPERDKRVTTHVALTARAFGADGIIIASEEDEKVKESVEDVVKRWGGPFFIEFNRNWRKVMKEFTGVKVHLTMYGLHVDDVIEELKEKLKKGEDFMIIVGAEKVPREVYELADYNVAIGNQPHSEVAALAVLLDRLLEGKGLKKEFKGAKIKIVPQARGKKVVEVQGYAEQDKAEGKATPGKNWENSGFTGDNP | not failed
5 | MCHSGTFHLTAGESVEWVLTWAPSFEPHPPMPDYTRSLESTLSFWASWVEELPHQRLYDAEVRRSMLVLRALTDLQTGGIVAAPTTSLPEDFGGIRNWDYRYVWLRDSALTIEALVEYGFSQAALQWRTWLLRAIAGDPENLRIMYGLGGERHLPERELQHLRGYENSVPVRVGNGAAEQYQADVVGEVMVALETIRRAGCLEDEFSWGMQKAILDFQEANFDRKDQGIWEMRSEPQYFTHGRAMMWAGFDRGIKAIEEFNLDGPIERWRELRAKLREEIMTNGFNEEIQSFTQCYDNTQVDASLLQLAQIGFIGFDDPKMLSTVARIEQELLDAHGFLHRYHTDGSDGLAGDEYPFLICSFWLVEQYASSNRLDEAKEKMNRILAVQSPLGLLAEEYSTHHGRLAGNYPQAFSHIGLISAARAINFEEARNRLEHHHHHH | failed
6 | MSKDSNKIIEQSREIGISIIMPLYNVEEVILETLESIHEQTFDSYEVLLIDDGSTDKTIEIVTEYIKDKPRFKLYTQPNGGPASARNHGLRLAIGMYICFVDSDDILPNYSLQLMYDGAISTGAKLITGATKRFNSEGEWFIPMHIQYNIAKPGMKTLLKNPELFYSIGPCAKLYHHSLIDGVFFPENIRYGEDQPFVLHALLQAKDIYTVEKVVYYYRLRDGESQSLTQSVDKDPIRILKSVFQIFDYGEEELKKNNTDYELEHHHHHH | failed
7 | MEALGPGGDRASPASSTSSLDLWHLSMRADSAYSSFSAASGGPEPRTQSPGTDLLPYLDWDYVRVVWGGPGPAPPDAALCTSPRPRPAVAARSGPQPTEVPGTPGPLNRQATPLLYALAAEAEAAAQAAEPPSPPASRAAYRQRLQGAQRRVLRETSFQRKELRMSLPARLRPTVPARPPATHPRSASLSHPGGEGEPARSRAPAPGTAGRGPLANQQRKWCFSEPGKLDRVGRGGGPARECLGEACSSSGLPGPEPLEFQHPALAKFEDHEVGWLPETQPQGSMNLDSGSLKLGDAFRPASRSRSASGEVLGSWGGSGGTIPIVQAVPQGAETPRPLFQTKLSRFLPQKEAAVMYPAELPQSSPADSEQRVSETCIVPAWLPSLPDEVFLEEAPLVRMRSPPDPHASQGPPASVHASDQPYGTGLGQRTGQVTVPTEYPLHECPGTAGADDCWQGVNGSVGISRPTSHTPTGTANDNIPTIDPTGLTTNPPTAAESDLLKPVPADALGLSGNDTPGPSHNTALARGTGQPGSRPTWPSQCLEELVQELARLDPSLCDPLASQPSPEPPLGLLDGLIPLAEVRAAMRPACGEAGEEAASTFEPGSYQFSFTQLLPAPREETRLENPATHPVLDQPCGQGLPAPNNSIQGKKVELAARLQKMLQDLHTEQERLQGEAQAWARRQAALEAAVRQACAPQELERFSRFMADLERVLGLLLLLGSRLARVRRALARAASDSDPDEQASLLQRLRLLQRQEEDAKELKEHVARRERAVREVLVRALPVEELRVYCALLAGKAAVLAQQRNLDERIRLLQDQLDAIRDDLGHHAPSPSPARPPGTCPPVQPPFPLLLT | failed
8 | MKKKIIIAIVASAITMTHFVGNTYADSKTEVSVTAPYNTNQIAKWLEAHAKPLKTTNPTASLNDLKPLKNMVGSASIVGLGEATHGAHEVFTMKHRIVKYLVSEKGFTNLVLEEGWDRALELDRYVLTGKGNPSQHLTPVFKTKEMLDLLDWIRQYNANPKHKSKVRVIGMDIQSVNENVYNNIIEYIKANNSKLLPRVEEKIKGLIPVTKDMNTFESLTKEEKEKYVLDAKQISALLEENKSYLNGKSKEFAWIKQNARIIEQFTTMLATPPDKPADFYLKHDIAMYENAKWTEEHLGKTIVWGHNGHVSKTNMLSFIYPKVAGQHLAEYYGKRYVSIGTSVYEGQYNVKNSDGEFGPYGTLKSDDPNSYNYIFGQVKKDQFFIDLRKANGVTKTWLNEQHPIFAGITTEGPDIPKTVDISLGKAFDILVQIQKVSPSQVHQLEHHHHHH | not failed
9 | MNCRKTALLKTGRVARLVLCSAMLGAAIPTMALAIGGASGAHVDYQVQGKLGEVIMNPYDIAPLTAIIKNGGYVLKDVTVRIVPKKDGQEIKYQVANKHLLTHGGIPVFGMYPDYVNTVEVEYSRLYNGKWEQAKESYTLYTPPVYTEPNATKTQKAALFSGADVKKVDKKFSDRLYFVNNFLHKAGKGTRAVWNNPTGGALEWNYYPQNFIVDTKGEVRWYMNANPIYDLKSIYNAGVMMGFKQNNDGAMSWGFGQRYVKYDIMGKEVFNRELPAGYNDFSHSMDNSPNGNYFLRVGSSNLKRADGKNVRTVRDVIIEVDPSSGLVQDEWRLFDILDPYRDVNFKVLDQGAVCLNIDASKAGHTMSAEDLAKQDANDKFGDIVGVGPGRNWAHVNSVDHDAEDDSIIISSRHQSAVIKIGRDKQIKWIMGSPEGWKKEYQGKLLTPVDSKGNKIECEAGGSKCPGYENDEGGFDWTWTQHTAFKIDSKSKGDIIYVSVFDNGDSRGMEQPALPSMKYSRAVIYKIDQKKMTVEQIWEFGKERGNGWYSPVTSLTEYQTDKDSVFVYSATAGADFDINTGAFKTDPNPYIMEFNYGSKEPAVEIQLKDTTGYQAMPFSVDKAFTK | failed
10 | MKKYSTIPTPCYVLESERLEKNAKILEIVRQQSGAKVLLALKGYAFWREFGILRQKLNGCCASGLYEAKLAFEEFGGRESHKEICVYSPAFKEAEMSAILPLATSIIFNSFYQYATYKDRILDKNKQLENLGLSPIKMGLRINPLYSEVTPAIYNPCSKVSRLGITPSGFEKGVKEHGLEGVSGLHFHTHCEQNADALCRTLEHVEKHFRPYLENMAWVNFGGGHHITKSDYDVNLLIQTIKDFKERYHNIEVILEPGEAIGWQCGFLIASVIDIVQNDQEIAILDASFSAHMPDCLEMPYRPSIFKVSVENDEELIEVEKGENQGAFSYFLGGPTCLAGDFMGSFSFETPLKRGDKIVFQDMLHYTIVKNNSFNGVPLPSLARLDQQGFKILKNFSYEDYKNRN | failed
11 | MGRKIVFFDIDGTLLDEQKQLPLSTIEAVRRLKQSGVYVAIATGRAPFMFEHVRKQLGIDSFVSFNGQYVVFEGNVLYKQPLRREKVRALTEEAHKNGHPLVFMDAEKMRASIGDHPHIHVSMASLKFAHPPVDPLYYENKDIYQALLFCRAEEEEPYVRNYPEFRFVRWHDVSTDVLPAGGSKAEGIRMMIEKLGIDKKDVYAFGDGLNDIEMLSFVGTGVAMGNAHEEVKRVADFVTKPVDKEGIWYGLKQLQLIR | not failed
